Assay results as given in patent US20200361992A1 (PROTAGONIST THERAPEUTICS, published 2020).
Starred links: 1 amine or outer side, 2 acyl side, 3 side chain; linkers in the order of their positions; H or OH if unused. Positions of bridges follow the written chain, without caps; N, C: chain ends. Non-standard residues stand in square brackets, D forms with d. Groups on a side chain read outwards from the residue. *: point of attachment. PEG12 = NCCOCCOCCOCCOCCOCCOCCOCCOCCOCCOCCOCCOCCC(=O)O; Dip = N[C@H](C(=O)O)C(c1ccccc1)c1ccccc1; NPC = nipecotic acid (L-nipecotic acid); γGlu = O=C(O)[C@H](CCC(=O)[*:2])N[*:1]; Palmitoyl = CCCCCCCCCCCCCCCC(=O)*; NMeF = CN[C@@H](Cc1ccccc1)C(=O)O; αMeF = C[C@](N)(Cc1ccccc1)C(=O)O; β3hF = N[C@H](CC(=O)O)Cc1ccccc1; Isovaleryl = CC(C)CC(=O)*

T1: human ferroportin (SLC40A1) fused in frame with the GFP protein, stably expressed in HEK293 cells (human, UniProt Q9NP59 1-571)
T1 sequence (looked up): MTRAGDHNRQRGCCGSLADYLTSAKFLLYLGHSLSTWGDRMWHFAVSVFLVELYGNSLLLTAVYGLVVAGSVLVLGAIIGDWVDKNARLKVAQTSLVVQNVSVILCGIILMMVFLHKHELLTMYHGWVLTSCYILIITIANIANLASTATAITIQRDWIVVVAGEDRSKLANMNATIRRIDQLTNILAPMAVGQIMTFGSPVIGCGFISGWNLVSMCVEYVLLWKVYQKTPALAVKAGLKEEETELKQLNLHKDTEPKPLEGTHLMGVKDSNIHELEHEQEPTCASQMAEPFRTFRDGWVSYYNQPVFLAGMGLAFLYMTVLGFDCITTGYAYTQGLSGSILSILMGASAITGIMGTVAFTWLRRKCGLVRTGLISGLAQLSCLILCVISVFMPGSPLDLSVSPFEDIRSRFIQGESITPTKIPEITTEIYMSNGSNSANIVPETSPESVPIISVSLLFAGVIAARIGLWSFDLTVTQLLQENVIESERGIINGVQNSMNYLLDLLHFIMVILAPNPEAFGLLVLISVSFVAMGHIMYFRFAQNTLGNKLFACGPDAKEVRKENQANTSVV


target: T1, human ferroportin (SLC40A1) fused in …; assay: cell-based or functional assay

FPN IC50 [nM]	Binder
> 3000	Isovaleryl-DTH[αMeF]PCIK([γGlu-Palmitoyl])[αMeF]C-NH2 (disulfide 6-10; SMILES CCCCCCCCCCCCCCCC(=O)N[C@@H](CCC(=O)NCCCC[C@@H]1NC(=O)[C@H]([C@@H](C)CC)NC(=O)[C@@H](NC(=O)[C@@H]2CCCN2C(=O)[C@](C)(Cc2ccccc2)NC(=O)[C@H](Cc2c[nH]cn2)NC(=O)[C@@H](NC(=O)[C@H](CC(=O)O)NC(=O)CC(C)C)[C@@H](C)O)CSSC[C@@H](C(N)=O)NC(=O)[C@](C)(Cc2ccccc2)NC1=O)C(=O)O) [Compd ID 217]
47	Isovaleryl-DTHFPCIK([γGlu-Palmitoyl])FC-NH2 (disulfide 6-10; SMILES CCCCCCCCCCCCCCCC(=O)N[C@@H](CCC(=O)NCCCC[C@@H]1NC(=O)[C@H]([C@@H](C)CC)NC(=O)[C@@H](NC(=O)[C@@H]2CCCN2C(=O)[C@H](Cc2ccccc2)NC(=O)[C@H](Cc2c[nH]cn2)NC(=O)[C@@H](NC(=O)[C@H](CC(=O)O)NC(=O)CC(C)C)[C@@H](C)O)CSSC[C@@H](C(N)=O)NC(=O)[C@H](Cc2ccccc2)NC1=O)C(=O)O) [Compd ID 223]
26	Isovaleryl-DTHFPCI[dK]([PEG12-Palmitoyl])F[dK]C-NH2 (disulfide 6-11; SMILES CCCCCCCCCCCCCCCC(=O)NCCOCCOCCOCCOCCOCCOCCOCCOCCOCCOCCOCCOCCC(=O)NCCCC[C@H]1NC(=O)[C@H]([C@@H](C)CC)NC(=O)[C@@H](NC(=O)[C@@H]2CCCN2C(=O)[C@H](Cc2ccccc2)NC(=O)[C@H](Cc2c[nH]cn2)NC(=O)[C@@H](NC(=O)[C@H](CC(=O)O)NC(=O)CC(C)C)[C@@H](C)O)CSSC[C@@H](C(N)=O)NC(=O)[C@@H](CCCCN)NC(=O)[C@H](Cc2ccccc2)NC1=O) [Compd ID 225]
79	Isovaleryl-DTHF[NPC]CIK([γGlu-Palmitoyl])[αMeF]C-NH2 (disulfide 6-10) [Compd ID 221]
> 3000	Isovaleryl-DTH[NMeF]PCIK([γGlu-Palmitoyl])[αMeF]C-NH2 (disulfide 6-10; SMILES CCCCCCCCCCCCCCCC(=O)N[C@@H](CCC(=O)NCCCC[C@@H]1NC(=O)[C@H]([C@@H](C)CC)NC(=O)[C@@H](NC(=O)[C@@H]2CCCN2C(=O)[C@H](Cc2ccccc2)N(C)C(=O)[C@H](Cc2c[nH]cn2)NC(=O)[C@@H](NC(=O)[C@H](CC(=O)O)NC(=O)CC(C)C)[C@@H](C)O)CSSC[C@@H](C(N)=O)NC(=O)[C@](C)(Cc2ccccc2)NC1=O)C(=O)O) [Compd ID 218]
114	Isovaleryl-DTHFPCIK([γGlu-Palmitoyl])FKC-NH2 (disulfide 6-11; SMILES CCCCCCCCCCCCCCCC(=O)N[C@@H](CCC(=O)NCCCC[C@@H]1NC(=O)[C@H]([C@@H](C)CC)NC(=O)[C@@H](NC(=O)[C@@H]2CCCN2C(=O)[C@H](Cc2ccccc2)NC(=O)[C@H](Cc2c[nH]cn2)NC(=O)[C@@H](NC(=O)[C@H](CC(=O)O)NC(=O)CC(C)C)[C@@H](C)O)CSSC[C@@H](C(N)=O)NC(=O)[C@H](CCCCN)NC(=O)[C@H](Cc2ccccc2)NC1=O)C(=O)O) [Compd ID 227]
23	Isovaleryl-DTHFPCI[dK]([PEG12-Palmitoyl])F[dR]C-NH2 (disulfide 6-11; not fully specified) [Compd ID 226]
33	Isovaleryl-DTHFPCI[dK]([PEG12-Palmitoyl])FKC-NH2 (disulfide 6-11; SMILES CCCCCCCCCCCCCCCC(=O)NCCOCCOCCOCCOCCOCCOCCOCCOCCOCCOCCOCCOCCC(=O)NCCCC[C@H]1NC(=O)[C@H]([C@@H](C)CC)NC(=O)[C@@H](NC(=O)[C@@H]2CCCN2C(=O)[C@H](Cc2ccccc2)NC(=O)[C@H](Cc2c[nH]cn2)NC(=O)[C@@H](NC(=O)[C@H](CC(=O)O)NC(=O)CC(C)C)[C@@H](C)O)CSSC[C@@H](C(N)=O)NC(=O)[C@H](CCCCN)NC(=O)[C@H](Cc2ccccc2)NC1=O) [Compd ID 224]
182	Isovaleryl-DTH[β3hF]PCIK([γGlu-Palmitoyl])[αMeF]C-NH2 (disulfide 6-10; SMILES CCCCCCCCCCCCCCCC(=O)N[C@@H](CCC(=O)NCCCC[C@@H]1NC(=O)[C@H]([C@@H](C)CC)NC(=O)[C@@H](NC(=O)[C@@H]2CCCN2C(=O)C[C@H](Cc2ccccc2)NC(=O)[C@H](Cc2c[nH]cn2)NC(=O)[C@@H](NC(=O)[C@H](CC(=O)O)NC(=O)CC(C)C)[C@@H](C)O)CSSC[C@@H](C(N)=O)NC(=O)[C@](C)(Cc2ccccc2)NC1=O)C(=O)O) [Compd ID 219]
871	Isovaleryl-DTHWPCIK([γGlu-Palmitoyl])[αMeF]C-NH2 (disulfide 6-10; SMILES CCCCCCCCCCCCCCCC(=O)N[C@@H](CCC(=O)NCCCC[C@@H]1NC(=O)[C@H]([C@@H](C)CC)NC(=O)[C@@H](NC(=O)[C@@H]2CCCN2C(=O)[C@H](Cc2c[nH]c3ccccc23)NC(=O)[C@H](Cc2c[nH]cn2)NC(=O)[C@@H](NC(=O)[C@H](CC(=O)O)NC(=O)CC(C)C)[C@@H](C)O)CSSC[C@@H](C(N)=O)NC(=O)[C@](C)(Cc2ccccc2)NC1=O)C(=O)O) [Compd ID 220]
4	Isovaleryl-DTHFPCIK([PEG12-Palmitoyl])FC-NH2 (disulfide 6-10; SMILES CCCCCCCCCCCCCCCC(=O)NCCOCCOCCOCCOCCOCCOCCOCCOCCOCCOCCOCCOCCC(=O)NCCCC[C@@H]1NC(=O)[C@H]([C@@H](C)CC)NC(=O)[C@@H](NC(=O)[C@@H]2CCCN2C(=O)[C@H](Cc2ccccc2)NC(=O)[C@H](Cc2c[nH]cn2)NC(=O)[C@@H](NC(=O)[C@H](CC(=O)O)NC(=O)CC(C)C)[C@@H](C)O)CSSC[C@@H](C(N)=O)NC(=O)[C@H](Cc2ccccc2)NC1=O) [Compd ID 222]
16	Isovaleryl-DTH[Dip]PCIK([γGlu-Palmitoyl])[αMeF]C-NH2 (disulfide 6-10; SMILES CCCCCCCCCCCCCCCC(=O)N[C@@H](CCC(=O)NCCCC[C@@H]1NC(=O)[C@H]([C@@H](C)CC)NC(=O)[C@@H](NC(=O)[C@@H]2CCCN2C(=O)[C@@H](NC(=O)[C@H](Cc2c[nH]cn2)NC(=O)[C@@H](NC(=O)[C@H](CC(=O)O)NC(=O)CC(C)C)[C@@H](C)O)C(c2ccccc2)c2ccccc2)CSSC[C@@H](C(N)=O)NC(=O)[C@](C)(Cc2ccccc2)NC1=O)C(=O)O) [Compd ID 216]

target: T1, human ferroportin (SLC40A1) fused in …; assay: cell-based or functional assay; remark: another data set of the same source

FPN IC50 [nM]	Binder
21	DTHFPCIKF (N-terminal isovaleric acid on each monomer; D-Lys 8; the two monomers linked through Lys[isoGlu-Palm]-NH2) [Compd ID 503]
28	DTHFPCIKF (N-terminal isovaleric acid on each monomer; the two monomers linked through K-Lys[isoGlu-Palm]-NH2) [Compd ID 501]
33	DTHFPCIKF (N-terminal isovaleric acid on each monomer; the two monomers linked through [D-Lys]-Lys[isoGlu-Palm]-NH2) [Compd ID 502]
